# Measured values reported in patent US8114638B2, “Arabinitol dehydrogenase from Neurospora crassa” (The Board of Trustees of the University of Illinois, priority 2007, dated 2012).
# Test system: OC[C@H](O)C(O)[C@@H](O)CO
# Experiment: purified protein, by the assay type
# Settings: other: with indicated substrate, 25° C., 50 mM Tris pH 8.0, saturated NAD+ (2 mM)
# Description: Initial rates were determined using a Varian Cary 100 Bio UV-visible spectrophotometer (Varian) at 25° C. in 50 mM Tris (pH 8.0). […] The kinetic data were analyzed with a modified version of Cleland's program (Cleland, W. W. (1979) Statistical analysis of enzyme kinetic data, Methods Enzymol 63, 103-138.).
# Kinetics. The data were used to calculate the kinetic constants for various substrates by fitting the Michaelis-Menten equation using Origin 5.0. […] The data represent averages of assays performed in duplicate or triplicate on two separate occasions.
substance,measurement,value
N. crassa LAD (Neurospora crassa OR74A),Km,18 ± 2 mM
same,kcat,20.2 ± 0.5 s⁻¹
same,kcat/Km,1120 M⁻¹ s⁻¹
